B1: 2-aminoethanethiol dioxygenase (ADO), full-length human, N-terminally His-tagged and biotinylated (pQE80L-Navi-ADO) [modified: biotin (biotinylated during expression, 0.2 mM biotin added); biotin (biotinylated during … (parent)
chain 1: CKGLAALPHSCLER
chain 2: MPRDNMASLIQRIARQACLTFRGSGGGRGASDRDAASGPEAPMQPGFPENLSKLKSLLTQLRAEDLNIAPRKATLQPLPPNLPPVTYMHIYETDGFSLGVFLLKSGTSIPLHDHPGMHGMLKVLYGTVRISCMDKLDAGGGQRPRALPPEQQFEPPLQPREREAVRPGVLRSRAEYTEASGPCILTPHRDNLHQIDAVEGPAAFLDILAPPYDPDDGRDCHYYRVLEPVRPKEASSSACDLPREVWLLETPQADDFWCEGEPYPGPKVFP
B2: 2-aminoethanethiol dioxygenase (ADO), full-length human, N-terminally His-tagged and biotinylated (pQE80L-Navi-ADO) [modified: biotin (biotinylated during expression, 0.2 mM biotin added); biotin (biotinylated during … (parent)
chain 1: CFPKVLSDDMKKLK
chain 2: B1 chain 2

Variants of: B1
Test: SPR
Conditions: with RGS5_(2-15), parent: 1, read off a plot

Row | ratio to parent (fold difference) | Variant
1 | 39 | chain 2 MPRDNMASLIQRIARQACLTFRGSGGGRGASDRDAASGPEAPMQPGFPENLSKLKSLLTQLRAEDLNIAPRKATLQPLPPNLPPVTYMHIYETDGFSLGVFLLKSGTSIPLHDHPGMHGMLKVLYGTVRISCMDKLDAGGGQRPRALPPEQQFEPPLQPREREAVRPGVLRSRAEYTEASGPCILTPHRDNLHQIDAVEGPAAFLDILAPPFDPDDGRDCHYYRVLEPVRPKEASSSACDLPREVWLLETPQADDFWCEGEPYPGPKVFP [chain 2 Y212F]
2 | 110 | chain 2 MPRDNMASLIQRIARQACLTFRGSGGGRGASDRDAASGPEAPMQPGFPENLSKLKSLLTQLRAEDLNIAPRKATLQPLPPNLPPVTYMHIYETDGFSLGVFLLKSGTSIPLHDHPGMHGMLKVLYGTVRISCMDKLDAGGGQRPRALPPEQQFEPPLQPREREAVRPGVLRSRAEYTEASGPCILTPHRDNLHQIDAVEGPAAFLDILAPPADPDDGRDCHYYRVLEPVRPKEASSSACDLPREVWLLETPQADDFWCEGEPYPGPKVFP [chain 2 Y212A]
3 | -4 | chain 2 MPRDNMASLIQRIARQACLTFRGSGGGRGASDRDAASGPEAPMQPGFPENLSKLKSLLTQLRAEDLNIAPRKATLQPLPPNLPPVTYMHIYETDGFSLGVFLLKSGTSIPLHDHPGMHGMLKVLYGTVRISCMDKLDAGGGQRPRALPPEQQFEPPLQPREREAVRPGVLRSRAEYTEASGPCILTPHRDNLHQIDAVEGPAAFLNILAPPYDPDDGRDCHYYRVLEPVRPKEASSSACDLPREVWLLETPQADDFWCEGEPYPGPKVFP [chain 2 D206N]

Variants of: B2
Test: SPR
Conditions: with IL32_(2-15), parent: 1, read off a plot

Row | ratio to parent (fold difference) | Variant
4 | -7 | chain 2 MPRDNMASLIQRIARQACLTFRGSGGGRGASDRDAASGPEAPMQPGFPENLSKLKSLLTQLRAEDLNIAPRKATLQPLPPNLPPVTYMHIYETDGFSLGVFLLKSGTSIPLHDHPGMHGMLKVLYGTVRISCMDKLDAGGGQRPRALPPEQQFEPPLQPREREAVRPGVLRSRAEYTEASGPCILTPHRDNLHQIDAVEGPAAFLNILAPPYDPDDGRDCHYYRVLEPVRPKEASSSACDLPREVWLLETPQADDFWCEGEPYPGPKVFP [chain 2 D206N]
5 | 60 | chain 2 MPRDNMASLIQRIARQACLTFRGSGGGRGASDRDAASGPEAPMQPGFPENLSKLKSLLTQLRAEDLNIAPRKATLQPLPPNLPPVTYMHIYETDGFSLGVFLLKSGTSIPLHDHPGMHGMLKVLYGTVRISCMDKLDAGGGQRPRALPPEQQFEPPLQPREREAVRPGVLRSRAEYTEASGPCILTPHRDNLHQIDAVEGPAAFLDILAPPADPDDGRDCHYYRVLEPVRPKEASSSACDLPREVWLLETPQADDFWCEGEPYPGPKVFP [chain 2 Y212A]
6 | 19 | chain 2 MPRDNMASLIQRIARQACLTFRGSGGGRGASDRDAASGPEAPMQPGFPENLSKLKSLLTQLRAEDLNIAPRKATLQPLPPNLPPVTYMHIYETDGFSLGVFLLKSGTSIPLHDHPGMHGMLKVLYGTVRISCMDKLDAGGGQRPRALPPEQQFEPPLQPREREAVRPGVLRSRAEYTEASGPCILTPHRDNLHQIDAVEGPAAFLDILAPPFDPDDGRDCHYYRVLEPVRPKEASSSACDLPREVWLLETPQADDFWCEGEPYPGPKVFP [chain 2 Y212F]

From paper PMC12098869, “An mRNA-display derived cyclic peptide scaffold reveals the substrate binding interactions of an N-terminal cysteine oxidase” (Nature Communications, 2025)
